Measurements reported in patent publication US6063592A, “Kell protein proteolytic activity” (New York Blood Center, Inc., priority 1998, dated 2000).
Where a chain is given by its changes, count along the chain named. Names may count otherwise. Residues, ends and D or L forms follow the SMILES beside them.

Experiments:
[1] = system: hematopoiesis cell culture system; test: Hematopoiesis cell culture system grown on methyl cellulose plates; format: cell-based; details: preliminary studies
Text: Meanwhile, the concentration of phosphoramidon needed to inhibit the proteolytic cleavage of big-endothelins by ECE-1 and Kell protein are different. While it is not intended to be bound by theory, it is possible that Kell participates in the proteolytic processing of growth factors or cytokines during hematopoiesis.

Kell protein [2] = molecular target: T1, Kell protein (Homo sapiens, UniProt P23276); test: Inhibition of Kell proteolytic activity by phosphoramidon; format: biochemical; details: Kell protease; read-out: Concentration which gives 50% of inhibition
T1 construct: placing the cDNA that encodes the extracellular portion of Kell in a baculovirus transfer vector pAcGP67-A; made in house; host or cells: sf9 insect cells, baculovirus (pAcGP67A), protein-containing culture medium
T1 sequence (P23276 68-732): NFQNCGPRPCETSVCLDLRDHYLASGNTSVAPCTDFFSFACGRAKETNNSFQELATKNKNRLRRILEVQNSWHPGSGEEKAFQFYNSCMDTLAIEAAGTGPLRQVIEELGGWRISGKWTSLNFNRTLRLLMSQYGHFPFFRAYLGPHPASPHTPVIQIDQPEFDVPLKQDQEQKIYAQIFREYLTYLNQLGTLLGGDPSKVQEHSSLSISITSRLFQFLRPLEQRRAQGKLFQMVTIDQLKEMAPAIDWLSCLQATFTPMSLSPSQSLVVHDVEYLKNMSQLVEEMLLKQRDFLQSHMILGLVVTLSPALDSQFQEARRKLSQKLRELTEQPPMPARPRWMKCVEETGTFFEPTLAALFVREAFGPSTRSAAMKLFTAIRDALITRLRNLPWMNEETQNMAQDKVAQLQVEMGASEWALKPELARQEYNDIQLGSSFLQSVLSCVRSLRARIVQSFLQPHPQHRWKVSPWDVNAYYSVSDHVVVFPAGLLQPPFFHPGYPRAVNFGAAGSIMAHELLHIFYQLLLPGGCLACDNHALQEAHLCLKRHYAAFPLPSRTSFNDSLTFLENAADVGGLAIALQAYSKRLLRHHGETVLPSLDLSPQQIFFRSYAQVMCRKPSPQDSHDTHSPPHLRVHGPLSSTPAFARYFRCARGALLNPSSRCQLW

Kell protein [3] = test: as above; format: biochemical, human
Kell protein [4] = molecular target: T1, Kell protein; test: Digestion of big endothelins with soluble recombinant Kell protein, HPLC analysis; format: biochemical; details: for cleavage by wild-type Kell and Jsa Kell: N-terminal sequencing and mass spectrometry of cleaved products, yields endothelins; for Km: measured by HPLC, read-out: substrate affinity for cleavage by Kell protein
Experimental: Digestion of Big Endothelin-1,-2, and -3 (Big ET-1, -2, and -3) With Soluble Recombinant Proteins
Enzyme reaction mixture was made by mixing 8-16 μl of 1 mg/ml big ET-1 (1-38), big ET-2 (1-37 or 1-38) and big ET-3 (1-41) (American Peptide Co., Sunnyvale, Calif. and Sigma, St. Louis, Mo. and Peptide Institute, Inc., Osaka, Japan), 10 μl 1 mM ZnCl2 final concentration 86 μM and 70 μl recombinant protein containing media. The mixture was incubated at 37° C. for different time periods. Twenty to 25 aliquots of this incubation mix was assayed by reverse HPLC. The conditions of the analysis were:
Solvent A: 0.1% TFA/2,5% 1-Propanol (PrOH)/H2 O (500 μl
Trifluoroacetic acid+1 L H2 O+25 ml 1-PrOH).
Solvent B; 0.09% TFA/2.5% 1-PrOH/90% Acetonitrile/H2 O (450 μl
TFA+1 L Acetonitrile+100 ml H2 O+25 ml 1-PrOH).
Gradient condition was 1-61% A In B over 0-60 minutes at a flow rate of 0.15 ml/min. The column used was reverse phase C18 column (2×150 mm, Vydac).

Kell protein [5] = molecular target: T2, Kell protein (Homo sapiens, UniProt P23276); test: Bradykinin cleavage by Kell protein; format: biochemical
T2 sequence (P23276 1-732): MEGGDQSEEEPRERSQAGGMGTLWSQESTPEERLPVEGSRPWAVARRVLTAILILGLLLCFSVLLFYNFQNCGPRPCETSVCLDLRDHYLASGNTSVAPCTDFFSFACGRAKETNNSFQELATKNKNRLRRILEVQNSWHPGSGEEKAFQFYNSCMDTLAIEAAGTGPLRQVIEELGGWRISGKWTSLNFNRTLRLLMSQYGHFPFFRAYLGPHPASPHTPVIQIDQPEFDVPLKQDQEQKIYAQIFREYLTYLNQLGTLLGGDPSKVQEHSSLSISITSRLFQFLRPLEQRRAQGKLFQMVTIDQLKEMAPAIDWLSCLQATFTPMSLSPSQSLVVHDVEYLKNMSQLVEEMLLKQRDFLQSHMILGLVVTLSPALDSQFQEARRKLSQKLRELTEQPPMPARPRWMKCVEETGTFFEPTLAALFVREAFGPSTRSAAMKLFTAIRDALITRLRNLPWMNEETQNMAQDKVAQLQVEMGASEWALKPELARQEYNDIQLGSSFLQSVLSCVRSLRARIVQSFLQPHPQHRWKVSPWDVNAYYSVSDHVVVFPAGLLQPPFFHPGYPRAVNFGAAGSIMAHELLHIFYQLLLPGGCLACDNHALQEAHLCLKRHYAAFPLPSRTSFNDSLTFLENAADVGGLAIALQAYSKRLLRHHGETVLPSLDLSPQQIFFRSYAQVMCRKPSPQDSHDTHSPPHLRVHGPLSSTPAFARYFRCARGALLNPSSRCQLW

Kell protein [6] = molecular target: T1, Kell protein; test: Digestion of big endothelins with soluble recombinant Kell protein, EIA assay; format: biochemical; details: measured by EIA; 15 min; read-out: substrate affinity for cleavage by Kell protein
Experimental: Enzyme reaction mix was made by mixing various amounts of 10 μM big ET's, 20 μl of 10 Kell assay buffer (0.5 M HEPES, 0.5 mM ZnCl2 and 1.5 NaCl containing 4% (v/v) of supernatant boiled BSA) and various amounts of soluble protein containing media (ranging from 0.0313 μl to 4 μl) and H2 O to make a total volume of 200 μl. The enzyme reaction was incubated at 37° C. for 15 min. At the end of the incubation time, 100 μl of 5 mM EDTA was added to terminate the reaction. Various amounts of the sample up to 100 μl were used in Enzyme-linked Immunoassay using Endothelin-1EIA kit (Cayman Chemical).

[7] = system: Soluble Kell proteins (sKell); test: VIP cutting by sKell proteins; format: biochemical, human; details: sf9 protein free media containing sKell
Text: Soluble Kell proteins (sKell) proteins were used to cut vasoactive intestinal peptide (VIP).

[8] = molecular target: Big Endothelin-3 (1-41) (Homo sapiens)
[9] = molecular target: Big Endothelin-1 (1-38) (Homo sapiens)
Kell protease = molecular target: T3, Kell protease (Homo sapiens, UniProt P23276); test: pH optimum of Kell protease; format: biochemical
T3 sequence (P23276 1-732): T2 sequence (P23276 1-732)

For CC(C)C[C@H](NP(=O)(O)O[C@@H]1O[C@@H](C)[C@H](O)[C@@H](O)[C@H]1O)C(=O)N[C@@H](Cc1c[nH]c2ccccc12)C(=O)O [Phosphoramidon], the “effect on cell growth” value ([1]; higher concentration of phosphoramidon (50-100 μM)) was “inhibited cell growth”, the “effect on cell growth” value ([1]; low concentration of phosphoramidon (3.5-7.0 μM)) was “increased cell growth” and the IC50 (Kell protein [2]) was 50 to 100 µM. For the same molecule, the “inhibition of Kell enzymatic activity” value (Kell protein [3]) was “inhibited”.

For “big-endothelin-1: inactive 38 amino acid precursor of endothelin-1, substrate of Kell protein (CSCSSLMDKECVYFCHLDIIWVNTPEHVVPYGLGSPRS)”, the “cleavage by wild-type Kell and Jsa Kell” value (Kell protein [4]) was “cleaved” and the Km (Kell protein [4]) was about 80 µM.

In the case of “big-endothelin-2: inactive precursor of endothelin-2, substrate of Kell protein (CSCSSWLDKECVYFCHLDIIWVNTPEQTAPYGEGNPP)”, the “cleavage by wild-type Kell and Jsa Kell” value (Kell protein [4]) is reported as “cleaved” and the Km (Kell protein [4]) is reported as about 20 µM.

NC(N)=NCCC[C@H](NC(=O)[C@H](Cc1ccccc1)NC(=O)[C@@H]1CCCN1C(=O)[C@H](CO)NC(=O)[C@H](Cc1ccccc1)NC(=O)CNC(=O)[C@@H]1CCCN1C(=O)[C@@H]1CCCN1C(=O)[C@@H](N)CCCN=C(N)N)C(=O)O [bradykinin] (H-RPPGFSPFR-OH) was tested, and the “cleavage by Kell protein” value (Kell protein [5]) was “does not cleave”.

With “big-endothelin-3: inactive precursor of endothelin-3, substrate of Kell protein (CTCFTYKDKECVYYCHLDIIWVNTPEQTVPYGLSNYRGSFR)” the “cleavage by wild-type Kell and Jsa Kell” value (Kell protein [4]) was “cleaved” and the Km (Kell protein [6]) was under 2 µM.

For “VIP: vasoactive intestinal peptide (1-28), a vasodilator (HSDAVFTDNYTRLRKQMAVKKYLNSILN)”, the “cleavage of VIP by soluble Kell” value [7] was “cleaves” and the “cleavage of VIP by soluble Kell” value ([7]; listed as vasoactive intestinal peptide (VIP)) was “cleaved”.

Work on “soluble wild type Kell (secreted form of wild-type Kell protein, extracellular portion, expressed in sf9 cells) (from UniProt P23276) (enzyme)” yielded a cleavage of big endothelin-3; substrate affinity (EIA) [8] of under 2 µM, a cleavage of big endothelin-1; substrate affinity (HPLC) [9] of 80 µM and a cleavage of big endothelin-2; substrate affinity (HPLC) (Big Endothelin-2 (1-37)) of 20 µM.

B1: Kell protease: secreted recombinant wild-type human Kell blood group protein expressed in sf9 cells (protein)
chain: T1 sequence (P23276 68-732)
For B1, the pH optimum (Kell protease) was 6.0-6.5.

B2: Jsa: secreted form of Js^a Kell phenotype (L597P) (protein)
chain: T1 sequence (P23276 68-732) with L530P
In the case of B2, the “cleavage of VIP by soluble Kell” value [7] is reported as “cleaves more than wild type Kell”.
